Consider 26 molecules from US20230002460A1 (YUHAN, published 2023).

A word on the EC50: it is the midpoint of the concentration-response curve. The low end stands for higher potency in that assay, the high end for lower potency in that assay.

Changes are numbered by the printed parent chain. Names may count otherwise.

To fix the notation:
B1: long-acting GDF15 fusion protein ΔN2, Q51H (Fc fusion)
chain 1: APALAGGPSVFLFPPKPKDTLMISRTPEVTCVVVDVSHEDPEVKFNWYVDGVEVHNAKTKPREEQYNSTYRVVSVLTVLHQDWLNGKEYKCKVSNKALPAPIEKTISKAKGQPREPQVYTLPPSREEMTKNQVSLWCLVKGFYPSDIAVEWESNGQPENNYKTTPPVLDSDGSFFLYSKLTVDKSRWQQGNVFSCSVMHEALHNHYTQKSLSLSPGKGGGGSGGGGSGGGGSGGGGSGGGGSNGDHCPLGPGRCCRLHTVRASLEDLGWADWVLSPREVQVTMCIGACPSHFRAANMHAQIKTSLHRLKPDTVPAPCCVPASYNPMVLIQKTDTGVSLQTYDDLLAKDCHCI
chain 2: not shown
B2: long-acting GDF15 fusion protein ΔN2, Y101Q (Fc fusion)
chain 1: B1 chain 1 with H291Q, Y341Q
chain 2: not shown
B3: long-acting GDF15 fusion protein ΔN2, W32F (Fc fusion)
chain 1: B1 chain 1 with W272F, H291Q
chain 2: not shown
B4: long-acting GDF15 fusion protein ΔN2, Q60L (Fc fusion)
chain 1: B1 chain 1 with H291Q, Q300L
chain 2: not shown
B5: long-acting GDF15 fusion protein ΔN2, Y101F (Fc fusion)
chain 1: B1 chain 1 with H291Q, Y341F
chain 2: not shown
B6: long-acting GDF15 fusion protein ΔN2, T92E (Fc fusion)
chain 1: B1 chain 1 with H291Q, T332E
chain 2: not shown
B7: long-acting GDF15 fusion protein ΔN2, Q51L (Fc fusion)
chain 1: B1 chain 1 with H291L
chain 2: not shown
B8: long-acting GDF15 fusion protein ΔN2, Q90H (Fc fusion)
chain 1: B1 chain 1 with H291Q, Q330H
chain 2: not shown
B9: long-acting GDF15 fusion protein ΔN2, Q51N (Fc fusion)
chain 1: B1 chain 1 with H291N
chain 2: not shown
B10: long-acting GDF15 fusion protein ΔN2, S97Q (Fc fusion)
chain 1: B1 chain 1 with H291Q, S337Q
chain 2: not shown
B11: long-acting GDF15 fusion protein ΔN2, Q90E (Fc fusion)
chain 1: B1 chain 1 with H291Q, Q330E
chain 2: not shown
B12: long-acting GDF15 fusion protein ΔN2, D93N (Fc fusion)
chain 1: B1 chain 1 with H291Q, D333N
chain 2: not shown
B13: long-acting GDF15 fusion protein ΔN2, D93E (Fc fusion)
chain 1: B1 chain 1 with H291Q, D333E
chain 2: not shown
B14: long-acting GDF15 fusion protein ΔN2, T92S (Fc fusion)
chain 1: B1 chain 1 with H291Q, T332S
chain 2: not shown
B15: long-acting GDF15 fusion protein ΔN2, D93L (Fc fusion)
chain 1: B1 chain 1 with H291Q, D333L
chain 2: not shown
B16: long-acting GDF15 fusion protein ΔN2, S97N (Fc fusion)
chain 1: B1 chain 1 with H291Q, S337N
chain 2: not shown
B17: long-acting GDF15 fusion protein ΔN2, S64Q (Fc fusion)
chain 1: B1 chain 1 with H291Q, S304Q
chain 2: not shown
B18: long-acting GDF15 fusion protein ΔN2, Q60N (Fc fusion)
chain 1: B1 chain 1 with H291Q, Q300N
chain 2: not shown
B19: long-acting GDF15 fusion protein ΔN2, Q51E (Fc fusion)
chain 1: B1 chain 1 with H291E
chain 2: not shown
B20: long-acting GDF15 fusion protein (dimer) FM5 + Fc_hole (ΔN2, S64K) (Fc fusion)
chain 1: B1 chain 1 with H291Q, S304K
chain 2: not shown
B21: long-acting GDF15 fusion protein (dimer) FM11-1 + Fc_hole (ΔN3, G4N, D5S, H6T, S64R; linker GS(G4S)3) (Fc fusion)
chain 1: APEAAGGPSVFLFPPKPKDTLMISRTPEVTCVVVDVSHEDPEVKFNWYVDGVEVHNAKTKPREEQYASTYRVVSVLTVLHQDWLNGKEYKCKVSNKALPAPIEKTISKAKGQPREPQVYTLPPSREEMTKNQVSLWCLVKGFYPSDIAVEWESNGQPENNYKTTPPVLDSDGSFFLYSKLTVDKSRWQQGNVFSCSVMHEALHNHYTQKSLSLSPGKGSGGGGSGGGGSGGGGSNSTCPLGPGRCCRLHTVRASLEDLGWADWVLSPREVQVTMCIGACPSQFRAANMHAQIKTRLHRLKPDTVPAPCCVPASYNPMVLIQKTDTGVSLQTYDDLLAKDCHCI
chain 2: APEAAGGPSVFLFPPKPKDTLMISRTPEVTCVVVDVSHEDPEVKFNWYVDGVEVHNAKTKPREEQYASTYRVVSVLTVLHQDWLNGKEYKCKVSNKALPAPIEKTISKAKGQPREPQVYTLPPSREEMTKNQVSLSCAVKGFYPSDIAVEWESNGQPENNYKTTPPVLDSDGSFFLVSKLTVDKSRWQQGNVFSCSVMHEALHNHYTQKSLSLSPGK
B22: long-acting GDF15 fusion protein (dimer) FM11-2 + Fc_hole (ΔN3, G4N, D5S, H6T, S64R; linker GS(G4S)5) (Fc fusion)
chain 1: APEAAGGPSVFLFPPKPKDTLMISRTPEVTCVVVDVSHEDPEVKFNWYVDGVEVHNAKTKPREEQYASTYRVVSVLTVLHQDWLNGKEYKCKVSNKALPAPIEKTISKAKGQPREPQVYTLPPSREEMTKNQVSLWCLVKGFYPSDIAVEWESNGQPENNYKTTPPVLDSDGSFFLYSKLTVDKSRWQQGNVFSCSVMHEALHNHYTQKSLSLSPGKGSGGGGSGGGGSGGGGSGGGGSGGGGSNSTCPLGPGRCCRLHTVRASLEDLGWADWVLSPREVQVTMCIGACPSQFRAANMHAQIKTRLHRLKPDTVPAPCCVPASYNPMVLIQKTDTGVSLQTYDDLLAKDCHCI
chain 2: B21 chain 2
B23: long-acting GDF15 fusion protein (dimer) FM11-3 + Fc_hole (ΔN3, G4N, D5S, H6T, S64R; linker GS(G4S)7) (Fc fusion)
chain 1: APEAAGGPSVFLFPPKPKDTLMISRTPEVTCVVVDVSHEDPEVKFNWYVDGVEVHNAKTKPREEQYASTYRVVSVLTVLHQDWLNGKEYKCKVSNKALPAPIEKTISKAKGQPREPQVYTLPPSREEMTKNQVSLWCLVKGFYPSDIAVEWESNGQPENNYKTTPPVLDSDGSFFLYSKLTVDKSRWQQGNVFSCSVMHEALHNHYTQKSLSLSPGKGSGGGGSGGGGSGGGGSGGGGSGGGGSGGGGSGGGGSNSTCPLGPGRCCRLHTVRASLEDLGWADWVLSPREVQVTMCIGACPSQFRAANMHAQIKTRLHRLKPDTVPAPCCVPASYNPMVLIQKTDTGVSLQTYDDLLAKDCHCI
chain 2: B21 chain 2
B24: long-acting GDF15 fusion protein (dimer) FM11-5 + Fc_hole (ΔN3, G4N, D5S, H6T, S64R; linker GSGGSS(PT)10) (Fc fusion)
chain 1: APEAAGGPSVFLFPPKPKDTLMISRTPEVTCVVVDVSHEDPEVKFNWYVDGVEVHNAKTKPREEQYASTYRVVSVLTVLHQDWLNGKEYKCKVSNKALPAPIEKTISKAKGQPREPQVYTLPPSREEMTKNQVSLWCLVKGFYPSDIAVEWESNGQPENNYKTTPPVLDSDGSFFLYSKLTVDKSRWQQGNVFSCSVMHEALHNHYTQKSLSLSPGKGSGGSSPTPTPTPTPTPTPTPTPTPTNSTCPLGPGRCCRLHTVRASLEDLGWADWVLSPREVQVTMCIGACPSQFRAANMHAQIKTRLHRLKPDTVPAPCCVPASYNPMVLIQKTDTGVSLQTYDDLLAKDCHCI
chain 2: B21 chain 2
B25: long-acting GDF15 fusion protein (dimer) FM11-6 + Fc_hole (ΔN3, G4N, D5S, H6T, S64R; linker GS(EAAAK)5) (Fc fusion)
chain 1: APEAAGGPSVFLFPPKPKDTLMISRTPEVTCVVVDVSHEDPEVKFNWYVDGVEVHNAKTKPREEQYASTYRVVSVLTVLHQDWLNGKEYKCKVSNKALPAPIEKTISKAKGQPREPQVYTLPPSREEMTKNQVSLWCLVKGFYPSDIAVEWESNGQPENNYKTTPPVLDSDGSFFLYSKLTVDKSRWQQGNVFSCSVMHEALHNHYTQKSLSLSPGKGSEAAAKEAAAKEAAAKEAAAKEAAAKNSTCPLGPGRCCRLHTVRASLEDLGWADWVLSPREVQVTMCIGACPSQFRAANMHAQIKTRLHRLKPDTVPAPCCVPASYNPMVLIQKTDTGVSLQTYDDLLAKDCHCI
chain 2: B21 chain 2
B26: long-acting GDF15 fusion protein (dimer) FM11-4 + Fc_hole (ΔN3, G4N, D5S, H6T, S64R; linker GS(EEEA)6) (Fc fusion)
chain 1: APEAAGGPSVFLFPPKPKDTLMISRTPEVTCVVVDVSHEDPEVKFNWYVDGVEVHNAKTKPREEQYASTYRVVSVLTVLHQDWLNGKEYKCKVSNKALPAPIEKTISKAKGQPREPQVYTLPPSREEMTKNQVSLWCLVKGFYPSDIAVEWESNGQPENNYKTTPPVLDSDGSFFLYSKLTVDKSRWQQGNVFSCSVMHEALHNHYTQKSLSLSPGKGSEEEAEEEAEEEAEEEAEEEAEEEANSTCPLGPGRCCRLHTVRASLEDLGWADWVLSPREVQVTMCIGACPSQFRAANMHAQIKTRLHRLKPDTVPAPCCVPASYNPMVLIQKTDTGVSLQTYDDLLAKDCHCI
chain 2: B21 chain 2

T1 sequence (Q6UXV0 19-394 limits assumed, chain 1 of 2): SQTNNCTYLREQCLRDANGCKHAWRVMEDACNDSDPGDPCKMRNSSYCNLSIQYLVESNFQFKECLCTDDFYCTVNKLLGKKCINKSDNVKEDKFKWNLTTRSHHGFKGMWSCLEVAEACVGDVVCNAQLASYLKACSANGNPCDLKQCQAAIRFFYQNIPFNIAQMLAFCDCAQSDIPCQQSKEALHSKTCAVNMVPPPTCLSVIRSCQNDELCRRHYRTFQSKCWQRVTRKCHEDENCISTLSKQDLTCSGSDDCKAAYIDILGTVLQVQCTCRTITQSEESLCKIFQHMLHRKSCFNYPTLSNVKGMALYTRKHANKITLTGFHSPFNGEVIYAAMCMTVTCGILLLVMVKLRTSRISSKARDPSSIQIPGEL
T1 sequence (P07949 29-1114 limits assumed, chain 2 of 2): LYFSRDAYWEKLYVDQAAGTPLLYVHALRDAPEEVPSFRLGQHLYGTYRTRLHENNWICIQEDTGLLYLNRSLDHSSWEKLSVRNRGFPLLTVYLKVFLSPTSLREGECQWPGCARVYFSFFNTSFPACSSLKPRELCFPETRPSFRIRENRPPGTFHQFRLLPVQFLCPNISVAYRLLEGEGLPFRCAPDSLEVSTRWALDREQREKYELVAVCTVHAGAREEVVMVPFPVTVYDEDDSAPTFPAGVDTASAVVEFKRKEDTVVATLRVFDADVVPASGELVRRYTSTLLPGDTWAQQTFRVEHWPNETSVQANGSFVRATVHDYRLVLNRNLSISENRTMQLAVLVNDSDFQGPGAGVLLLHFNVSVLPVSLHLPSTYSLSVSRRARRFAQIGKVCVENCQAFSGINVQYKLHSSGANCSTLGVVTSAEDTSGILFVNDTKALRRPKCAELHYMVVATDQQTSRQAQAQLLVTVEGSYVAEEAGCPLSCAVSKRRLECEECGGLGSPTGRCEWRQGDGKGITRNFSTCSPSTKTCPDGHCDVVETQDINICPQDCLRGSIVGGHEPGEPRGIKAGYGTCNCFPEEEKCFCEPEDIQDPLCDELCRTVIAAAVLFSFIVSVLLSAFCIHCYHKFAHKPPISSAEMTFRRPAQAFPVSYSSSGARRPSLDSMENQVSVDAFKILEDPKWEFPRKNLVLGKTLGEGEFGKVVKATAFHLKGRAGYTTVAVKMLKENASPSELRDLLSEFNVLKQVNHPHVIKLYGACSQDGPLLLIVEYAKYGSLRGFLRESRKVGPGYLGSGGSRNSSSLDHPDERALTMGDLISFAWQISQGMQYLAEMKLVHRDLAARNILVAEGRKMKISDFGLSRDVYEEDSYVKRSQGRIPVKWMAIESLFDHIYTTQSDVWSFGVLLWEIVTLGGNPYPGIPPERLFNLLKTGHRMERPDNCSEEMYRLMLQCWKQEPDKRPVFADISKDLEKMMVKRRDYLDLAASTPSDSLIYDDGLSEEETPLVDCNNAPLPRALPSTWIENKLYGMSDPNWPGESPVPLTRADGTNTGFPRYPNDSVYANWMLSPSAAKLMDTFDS

The first assay concerns the target T1, GDF15 receptors GFRAL and RET, overexpressed together on HEK293 cells (UniProt Q6UXV0 19-394; P07949 29-1114, limits assumed). In words: cell-based or functional assay.
Consider B1, for which the midpoint of the response, the EC50, lay at 24.1 nM and the “Emax (%) [relative to FWT 100%]” value was 90.8%.

For B2, the “EC50” value amounted to 12.9 nM and the “Emax (%) [relative to FWT 100%]” value was 16.3%.

On to B3, for which the “EC50” value was 19.4 nM and the “Emax (%) [relative to FWT 100%]” value was 51.3%.

Consider B4, for which the “EC50” value stood at 11.9 nM and the “Emax (%) [relative to FWT 100%]” value was found to be 96.3%.

As for B5, the “EC50” value is 31.8 nM and the “Emax (%) [relative to FWT 100%]” value was found to be 37.5%.

For the molecule B6, the “EC50” value was determined as 1.1 nM and the “Emax (%) [relative to FWT 100%]” value came out at 12.3%.

Turning to B7, the response was half-maximal at 15.2 nM (EC50) and the “Emax (%) [relative to FWT 100%]” value is 88.6%.

For B8, it took 43.4 nM to reach a half-maximal effect (EC50) and the “Emax (%) [relative to FWT 100%]” value was 73.2%.

In the case of B9, the “EC50” value amounted to 14.2 nM and the “Emax (%) [relative to FWT 100%]” value is 87.8%.

With B10, the midpoint of the response, the EC50, lay at 9.2 nM and the “Emax (%) [relative to FWT 100%]” value is 118%.

For B11, the response was half-maximal at 9.3 nM (EC50) and the “Emax (%) [relative to FWT 100%]” value came to 10.5%.

Regarding B12, a half-maximal effect (EC50) was put at 22.6 nM and the “Emax (%) [relative to FWT 100%]” value turned out to be 99.6%.

Turning to B13, the half-maximal effective concentration (EC50) came to 6.5 nM and the “Emax (%) [relative to FWT 100%]” value amounted to 87.6%.

For the molecule B14, the concentration for a half-maximal effect (EC50) was found to be 14.9 nM and the “Emax (%) [relative to FWT 100%]” value came to 112%.

As to B15, the “EC50” value stood at 9 nM and the “Emax (%) [relative to FWT 100%]” value was determined as 59.1%.

In the case of B16, the half-maximal effective concentration (EC50) stood at 5.6 nM and the “Emax (%) [relative to FWT 100%]” value stood at 100%.

As for B17, the “EC50” value is 7.9 nM and the “Emax (%) [relative to FWT 100%]” value stood at 100%.

Consider B18, for which the “EC50” value was 7 nM and the “Emax (%) [relative to FWT 100%]” value came to 43.5%.

Turning to B19, the 50% effective concentration (EC50) was determined as 44.2 nM and the “Emax (%) [relative to FWT 100%]” value was 41.9%.

For B20, the half-maximal effective concentration (EC50) turned out to be 7.7 nM and the “Emax (%) [relative to FWT 100%]” value was 147%.

The target of a further assay is T1, GDF15 receptors GFRAL and RET, …. In words: cell-based or functional assay. This is another data set of the same source.
In the case of B21, a half-maximal effect (EC50) was put at 9.7 nM and the “Emax (%)” value turned out to be 65.6%.

For the molecule B22, the midpoint of the response, the EC50, lay at 7.7 nM and the “Emax (%)” value was 79.4%.

Take B23: the half-maximal effective concentration (EC50) amounted to 7.8 nM and the “Emax (%)” value turned out to be 81%.

With B24, a half-maximal effect (EC50) was put at 5.1 nM and the “Emax (%)” value came to 68.2%.

In the case of B25, the concentration for a half-maximal effect (EC50) is 6.8 nM and the “Emax (%)” value stood at 80.3%.

Regarding B26, the “EC50” value was 45.4 nM and the “Emax (%)” value is 105%.
